The record followed here is article PMC6778850, “The flavin mononucleotide cofactor in α-hydroxyacid oxidases exerts its electrophilic/nucleophilic duality in control of the substrate-oxidation level” (Acta Crystallographica. Section D, Structural Biology, 2019).

Substitutions are numbered along the chain they refer to. In names and notes the source's numbering stands.

This data set deals with the molecule itself. The data set is described as follows: SEC; analytical gel filtration on a Superdex 200 16/20 column; 5-deaza-FMN-reconstituted protein after the refolding process; self-association (tetramer). (Size exclusion chromatography separates by hydrodynamic size, large species first.)

B1: p-hydroxymandelate oxidase (Hmo), 5-deaza-FMN-containing (enzyme, Amycolatopsis orientalis)
chain: MTYVSLADLERAARDVLPGEIFDFLAGGSGTEASLVANRTALERVFVIPRMLRDLTDVTTEIDIFGRRAALPMAVAPVAYQRLFHPEGELAVARAARDAGVPYTICTLSSVSLEEIAAVGGRPWFQLYWLRDEKRSLDLVRRAEDAGCEAIVFTVDVPWMGRRLRDMRNGFALPEWVTAANFDAGTAAHRRTQGVSAVADHTAREFAPATWESVEAVRAHTDLPVVLKGILAVEDARRAVDAGAGGIVVSNHGGRQLDGAVPGIEMLGEIVAAVSGGCEVLVDGGIRSGGDVLKATALGASAVLVGRPVMWALAAAGQDGVRQLLELLAEEVRDAMGLAGCESVGAARRLNTKLGVV
notes: p-hydroxymandelate oxidase (Hmo), product of the hmo gene (orf22) amplified from Amycolatopsis orientalis genomic DNA, cloned in pET-28a(+); no removal of the His6 tag is described; also called 5-deaza-Hmo; wild-type Hmo; source: E. coli BL21(DE3), purified (Ni-NTA, gel filtration); deflavinated and reconstituted with 5-deaza-FMN on an Ni-NTA column
Broadly, the stoichiometry N is the number of molecules, sites or subunits per partner or assembly. Take B1: the “stoichiometry N” value was found to be 4.

B2: p-hydroxymandelate oxidase (Hmo) Y128F mutant, 5-deaza-FMN-containing (enzyme, Amycolatopsis orientalis)
chain: B1 chain with Y128F
notes: p-hydroxymandelate oxidase (Hmo), product of the hmo gene (orf22) of Amycolatopsis orientalis, point mutant Y128F made with QuikChange; no removal of the His6 tag is described; source: E. coli BL21(DE3), purified (same protocol as wild-type Hmo); deflavinated and reconstituted with 5-deaza-FMN on an Ni-NTA column
As to B2, the “stoichiometry N” value came to 4.
